Reference: publication PMC4223078
Where a chain is given by its changes, count along the chain named.

How the values were obtained:
Assay in all cases: EMSA
Conditions in all cases: 10 nM DNA in 15 mM HEPES pH 7.9, 40 mM KCl, 1 mM EDTA, 0.5% DTT, 5% glycerol, 30 min (incubation temperature not stated); 6% native PAGE in TAE at 4 C, SYBR …
[1] = target: T1, StpA T37I T37I (Salmonella enterica serovar Typhimurium 14028s) (UniProt A0A0F6B5K2)
T1 sequence: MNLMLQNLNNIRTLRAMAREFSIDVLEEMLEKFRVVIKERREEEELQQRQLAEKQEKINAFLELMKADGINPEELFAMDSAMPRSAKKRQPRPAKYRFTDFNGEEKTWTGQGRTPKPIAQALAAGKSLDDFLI

[2] = target: T2, StpA A77D A77D (Salmonella enterica serovar Typhimurium 14028s) (UniProt A0A0F6B5K2)
T2 sequence: T1 sequence with I37T, A77D

[3] = target: T3, StpA M4T M4T (Salmonella enterica serovar Typhimurium 14028s) (UniProt A0A0F6B5K2)
T3 sequence: T1 sequence with M4T, I37T

[4] = target: T4, StpA WT (Salmonella enterica serovar Typhimurium 14028s) (UniProt A0A0F6B5K2)
T4 sequence: T1 sequence with I37T

[5] = target: T5, H-NS (6His) (Salmonella enterica serovar Typhimurium 14028s?) (UniProt A0A0F6B244)
T5 sequence: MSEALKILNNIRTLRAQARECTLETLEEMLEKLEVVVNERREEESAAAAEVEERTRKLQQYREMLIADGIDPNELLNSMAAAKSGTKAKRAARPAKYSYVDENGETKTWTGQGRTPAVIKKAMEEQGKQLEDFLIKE

Measured: binding

CTCTCTCTGCACCAGGATATACGGCAGCGTCCATTCGATAATCACAGTTAGTTATAACAATATTATTACCAACATGTCAGTTATTTAAAGCACAGGCATAAGCTAAATAATCAAATGTTAAAAACATATAAACCCGAGCCCGTAGAATATGACATTAAGCTCATAATAAAAGCTCAACCTGACCGTTAGTACTAACAGCAGAATTACTGAAACAGTAGATTCTATCCTAACGACTTGTATTAGTTATTATAACTTTTCACCCTGTAAGAGAATACACTATTATCATGCC (double strand) [hilA 289 bp fragment]
binds: all assays above
